Target: T1, N-Succinyl-Ala-Ala-Pro-Phe-p-nitroanilide
T1 chain: AAPF

B1: soluble keratinase (Bacillus licheniformis PWD-1 keratinase) (protein)
chain: AQTVPYGIPLIKADKVQAQGFKGANVKVAVLDTGIQASHPDLNVVGGASFVAGEAYNTDGNGHGTHVAGTVAALDNTTGVLGVAPSVSLYAVKVLNSSGSGSYSGIVSGIEWATTNGMDVINMSLGGASGSTAMKQAVDNAYARGVVVVAAAGNSGSSGNTNTIGYPAKYDSVIAVGAVDSNSNRASFSSVGAELEVMAPGAGVYSTYPTNTYATLNGTSMVSPHVAGAAALILSKHPNLSASQVRNRLSSTATYLGSSFYYGKGLINVEAAAQ
Km: 220 µM
